Source: patent publication US6677433B2 (The Regents of the University of California, priority 2001, dated 2004)

What was measured:
[1] = system: wheat protease preparation; experiment: Proteolysis by a plant protease preparation (SDS-PAGE, laser densitometer); assay type: biochemical
Procedure: The endosperm (10-15 g fresh weight) isolated from 5-day germinated wheat seeds by excising the roots and shoots was extracted for 30 minutes at 4° C. with 5 volumes of 200 mM sodium acetate, pH 4.6, containing 10 mM β-mercaptoenthanol. The homogenate was centrifuged for 20 minutes at 48,000 g, 4° C. The pellet was discarded and the supernatant fluid was fractionated with 30-70% ammonium sulfate. This fraction, which represented the protease preparation, was resuspended in a minimum volume of 20 mM sodium acetate, pH 4.6, containing 10 mM β-mercaptoenthanol, and dialyzed against this buffer overnight at 4° C.
Unless indicated, the reduction of the trypsin inhibitors (0.4 mg/ml) was carried out in 0.1 ml of 20 mM sodium phosphate buffer, pH 7.9 containing 10 mM EDTA at 30° C. for 2 hours. […] Proteolytic products were analyzed by electrophoresis with 12% or 16% SDS polyacrylamide slab gels (Laemmli, 1970). […]
To test whether the reduced forms of KTI and BBTI show decreased stability to proteases other than trypsin, both the reduced and oxidized forms of KTI and BBTI were incubated with a wheat protease preparation or with subtilisin and the proteolytic products were analyzed by SDS-PAGE. The extent of proteolysis was determined by measuring the abundance of intact protein on SDS gels by laser densitometer. […]

NADP/thioredoxin system = NADP/thioredoxin system (Escherichia coli, UniProt P0AA25)
Procedure: (§1) Direct reduction of the proteins under study was determined by a modification of the method of Crawford et al. (Crawford, N. A. et al. (1989), Arch. Biochem. Biophys. 271:223-239). The reaction was carried out in 100 mM potassium phosphate buffer, pH 7.1, containing 10 mM EDTA and 16% glycerol in a final volume of 0.1 ml. As indicated, 0.7 μg (0.1 μM) NTR and 1 μg (0.8 μM) thioredoxin (both routinely from E. coli were added to 70 μl of the buffer solution containing 1 mM NADPH and 10 μg (2 to 17 μM) of target protein. When thioredoxin was reduced by dithiothreitol (DTT, 0.5 mM), NADPH and NTR were omitted. Assays with reduced glutathione were performed similarly, but at a final concentration of 1 mM. After incubation for 20 min, 100 nmoles of mBBr were added and the reaction was continued for another 15 min. To stop the reaction and derivatize excess mBBr, 10 μl of 10% SDS and 10 μl of 100 mM β-mercaptoethanol were added and the samples were then applied to the gels. In the case of reduction by glutaredoxin, the thioredoxin and NTR were replaced by 1 μg (0.8 μM) E. coli glutaredoxin, 1.4 μg (0.14 μM) glutathione reductase purified from spinach leaves (Florencio, F. J. et al. (1988), Arch. Biochem. Biophys. 266:496-507) and 1.5 mM NADPH was used.

glutaredoxin = target: T1, glutaredoxin (Escherichia coli, UniProt P68688); experiment: Reduction by glutaredoxin relative to thioredoxin (mBBr/SDS-PAGE, densitometric scanning); assay type: biochemical; conditions: glutathione reductase, NADPH
T1 construct: gift of Professor A. Holmgren
T1 sequence (P68688 1-85): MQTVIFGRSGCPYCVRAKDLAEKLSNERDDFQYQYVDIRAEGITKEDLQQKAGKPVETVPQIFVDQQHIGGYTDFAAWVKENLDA
Procedure: as §1, with “In the case of reduction by glutaredoxin, the thioredoxin and NTR were replaced by 1 μg (0.8 μM) E. coli glutaredoxin, 1.4 μg (0.14 μM) glutathione reductase purified from spinach leaves (Florencio, F. J. et al. (1988), Arch. Biochem. Biophys. 266:496-507) and 1.5 mM NADPH was used.” left out
This ability was tested, using glutaredoxin from E. coli and the seed proteins currently under study. Reduction activity was monitored by the mBBr/SDS polyacrylamide gel electrophoresis procedure coupled with densitometric scanning.

trypsin = target: T2, trypsin (Bos taurus, UniProt P00760); experiment: Heat stability of trypsin inhibitors (trypsin activity, azocasein); assay type: biochemical
T2 construct: purchased Sigma Chemical Co. (St. Louis, Mo.) T8640
T2 sequence (P00760 24-246): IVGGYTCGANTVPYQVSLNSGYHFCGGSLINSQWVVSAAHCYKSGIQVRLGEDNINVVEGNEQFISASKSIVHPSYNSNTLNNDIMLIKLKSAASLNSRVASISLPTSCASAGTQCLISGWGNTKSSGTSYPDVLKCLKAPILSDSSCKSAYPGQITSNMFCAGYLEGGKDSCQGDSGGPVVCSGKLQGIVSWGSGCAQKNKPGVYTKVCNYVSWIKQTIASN
Procedure: Unless indicated, the reduction of the trypsin inhibitors (0.4 mg/ml) was carried out in 0.1 ml of 20 mM sodium phosphate buffer, pH 7.9 containing 10 mM EDTA at 30° C. for 2 hours. The concentrations of thioredoxin, NTR, and NADPH were 0.024 mg/ml, 0.02 mg/ml, and 0.25 mM, respectively. […] Following reduction, aliquots of the inhibitor mixture were withdrawn either for determination of trypsin inhibitory activity or proteolytic susceptibility. In the subtilisin tests, the inhibitor mixture (50 μl) was directly mixed with subtilisin and incubated at room temperature for 1 hour. With the wheat protease preparation, the pH of the inhibitor mixture (50 μL) was first adjusted to 4.7 by mixing with 35 μl of 200 mM sodium acetate, pH 4.6; 10 μl of the wheat protease preparation was then added and incubation was continued for 2 hours at 37° C. To stop digestion with subtilisin, 2 μl of 100 mM phenylmethylsulfonyl fluoride (PMSF) and 10 μl of 10% SDS were added to the digestion mixture. With the plant protease preparation, digestion was stopped by adding an equal volume of SDS sample buffer [0.125 M Tris-HCl, pH 6.8, 4% (w/v) SDS, 20% (v/v) glycerol, 10% (v/v) β-mercaptoethanol, and 0.02% (w/v) bromophenol blue]. Proteolytic products were analyzed by electrophoresis with 12% or 16% SDS polyacrylamide slab gels (Laemmli, 1970). The dried slab gels were scanned with a laser densitometer (Pharmacia-LKB UltraScan XL) and the peak area of the KTI or BBTI protein band was obtained by integration with a Pharmacia GelScan XL software program.
Thioredoxin and NTR were assayed as previously described by Florencio et al. (1988). Trypsin activity was measured in 50 mM Tris-HCl, pH 7.9, by following the increase in absorbance at 253 nm with N-benzoyl-L-arginine ethyl ester as substrate (Mundy et al., 1984) or by the release of azo dye into the trichloroacetic acid (TCA)-soluble fraction from azocasein substrate (see below). For trypsin inhibition assays, trypsin (5 to 10 μg) was preincubated with appropriate amounts of KTI or BBTI for 5 minutes at room temperature in 50 mM Tris-HCl, pH 7.9 and proteolytic activity was then determined. While the two substrates yielded similar data, results are presented with only one substrate.
The question arises as to whether reduction by thioredoxin yields similar results. The results as shown in TABLE XII provide a positive answer to this question. When heated at 80° C. for 15 minutes, the thioredoxin-reduced form of KTI completely lost its ability to inhibit trypsin, whereas its oxidized counterpart retained about half of the original activity (Table XII). […] Nonetheless, as with KTI, the reduced form of BBTI was fully inactivated by heat (Table XII). […]

B1: Soybean Kunitz: Kunitz soybean trypsin inhibitor (protein, UniProt P01070 25-205, looked up)
Trypsin inhibitor A: DFVLDNEGNPLENGGTYYILSDITAFGGIRAAPTGNERCPLTVVQSRNELDKGIGTIISSPYRIRFIAEGHPLSLKFDSFAVIMLCVGIPTEWSVVEDLPEGPAVKIGENKDAMDGWFRLERVSDDEFNNYKLVFCPQQAEDDKCGDIGISIDHDDGTRRLVVSKNKPLVVQFQKLDKESL
- degraded by wheat protease preparation [1]: about 80%
- % Reduction After 20 min (NADP/thioredoxin system): 14%
- % Reduction After 120 min (NADP/thioredoxin system): 22%
- percentage reduction relative to E. coli thioredoxin (glutaredoxin): ineffective
- Relative Trypsin Activity, inhibitor heated 15 min at 80° C., Oxidized (trypsin): 52.3
- Relative Trypsin Activity, inhibitor heated 15 min at 80° C., Reduced (trypsin): 98.7
- Relative Trypsin Activity, inhibitor unheated, Reduced (trypsin): 76.4
- Relative Trypsin Activity, inhibitor unheated, Oxidized (trypsin; no inhibitor = 100, azocasein): 26.6
